To fix the notation:
B1: TPR t1 (parent)
chain: GACCAAUCUGCCCUCAGAGCUCGAGAACAUCUUCGGAUGCAGAGGAGGCAGGCUUCGGUGGCGCGAUAGCGCCAACGUCCUCAACCUCCAAUGCAUCCCACCACAUGAUGAUGCCUGAAGAGCCUUGGUUUUUUG

Variants of B1 are the subject of the data set. Kind of data set: polymerase ribozyme fitness, log enrichment relative to wild type (log ratio); higher = more active; in vitro selection for triplet polymerase activity. The gist of the method:
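For each subunit of a heterodimeric triplet polymerase ribozyme, a mutant library was built by PCR and transcribed, then taken through a single in vitro selection round in triplicate. Selection involved annealing to a biotinylated primer, the partner subunit and triplets, incubation frozen at −7 °C, gel excision of extended constructs, capture on streptavidin beads and RT-PCR. Genotypes were retained after Illumina sequencing of inputs and outputs only with ≥10 input reads and ≥1 read in each output. Fitness is defined as the logarithm of a genotype's enrichment relative to wild-type enrichment, using inverse-variance-weighted averages across replicates, with the logarithm taken to base 2.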
On to GACCAAUCUGCUCUCAGAGCUCGAGAACAUCUUCGGAUGCAGCGGAGGCAGGCUUCGGUGGCGCGAUAGCGCCAACGUCCUCAACCUCCUAUGCAUCCCACCACAUGAUGAUGCCUGAAGAGCCUUGGUUUUUUG, for which the “polymerase ribozyme fitness (log ratio)” value was -0.274.

In the case of GACCAAUCUGCCCUCAGAGUUCGAGAACAUCUUCGGAUGCAGAGGAGGCAGGCUUCGGUGGCGCGAUAGCGGCAACGUCCUCAACCUCCAAUGCAUCCCACCACAUGAUGAUGCCUGAAGAGCCUUGGUUUUUUG, the “polymerase ribozyme fitness (log ratio)” value was -1.56.

With GACCAAUCUGCCCUCAGAGCUCGAGAACAUCUUCGGAUGCUGGGGAGACAGGCUUCGGUGGCACGAUAGCGCCAACGUCCUCAACCUCCGAUGCAUCCCACCAUAUGAUGAUGCCUGAAUAGCCUUGGUUUUUUG, the “polymerase ribozyme fitness (log ratio)” value was -4.4.

In the case of GACCAAUCUGCCCUCAGAGCUCGAGAACAUCUUCGGAUGCAGAGGAGGCAGGCUUCGGUGGCGCGAUAGCGCCAACGUCUUCAACCUCCAAUGCAUCCCACCACAUGAUGAUGCCUGAACAGCCUUGGUUUUUUG, the “polymerase ribozyme fitness (log ratio)” value came out at 0.704.

On to GACCAAUCUGCCCUCAGAGCUCGAGAACAUCUUCGGAUGCAGAGGAGGCAGGCUUCGGUGGCGCGAUAGCGCCAACGUCCGCAACCUCCAAUGCAUCCCACCACAUGAUGAUGCCUGUAGAGCCUUGGUUUUUUG, for which the “polymerase ribozyme fitness (log ratio)” value was -2.58.

On to GACCAAUCUGCCCUCAGAGCUCGAGAACAUCUUCGGAUGCAGAGAAGGCAGGCUUCGGUGGCGCGAUAGCGCCAACGUACUCAACCUCCAAUGCAUCCCACCACAUGAUGAUUCCUGGAGAGCCUUGGUUUUUUG, for which the “polymerase ribozyme fitness (log ratio)” value was -7.04.

As to GACCAAUCUGCCCUCAGAGCUCGAGUACAUCUUCGGAUGCAGAGGAGGCAGGCUUCGGUGCCGCGAUAGCGCCAACGUCCUCAACCUCCAAUGCAUCCCACCACAUGAUGAUGCCUGAAGAGCCUUGGUUUUUUG, the “polymerase ribozyme fitness (log ratio)” value was -3.63.

In the case of GACCAAUCUGCCCUCAGAGCUCGAGAACAUCUUCGGAUGCAGAGGAGGCAGGCUUCGGUGGCGCGAUACCGCCAACGUCCUCAACCUCCAAUGCAUCCCACCACAUGAUGAUGCCCGAACAGCCUUGGUUUUUUG, the “polymerase ribozyme fitness (log ratio)” value was -0.894.

With GACCAAUCUGCCGUCAGAGCUCGAGAACAUCUUCGAAUGGAGAGGAGGCAGGCUUCGGUGGCGCGAUAGCGCCAACGUCCUCAACCUCCAAUGCAUCCCACCACAUGAUGAUGCCUGAAGAGCCUUGGUUUUUUG, the “polymerase ribozyme fitness (log ratio)” value was -4.55.

Consider GACCACUCUGCCCUCAGAGCUCGAGAACAUCUUCGGAUGUAGAAGAGGCAGGCUUCGGUGGCGCGAUAGCGCCAACGUCCUCAACCUCCAAUGCAUCCCACCACAUGAUGAUGCCUGAAGUGCCUUGGUUUUUUG, for which the “polymerase ribozyme fitness (log ratio)” value turned out to be 0.36.

Regarding GACCAAUCUGCCCUCAGAGCUCGAGAACGUCUUCGGAUGCAGAGGAGGCAGGCUUCGGUGGCGCGAUAGCGCCAACGUCCUCAACCUCCAAUGCAUCCCACCAUAUGAUGAGGCCUGAAGAGCCUUGGUUUUUUG, the “polymerase ribozyme fitness (log ratio)” value was 1.06.

As for GACCAAUCUGACCUCAGAGCUCGAGAACAUCUUCGGAUGCAGAGGAGGCAGGCUUCGGUGGCGCGAUAGCGCCAACGUCCUCAACCUCCAAUGCAUCCCACCACCUGAUGAUGCCUGAAGAGCCUUGGUUUUUUG, the “polymerase ribozyme fitness (log ratio)” value was -3.07.

Consider GACCAAACUGCCCUCAGAGCUCGAGAACAUCUUCGGAUGCAGAGGAGGCAGGCUGCGGUGGCGCGAUAGCGCCAACGUCCUCAACCUCCAAUGCAUCCCACCACAUGAUGAUGCCUGAAGAGCCUUGGUUUUUUG, for which the “polymerase ribozyme fitness (log ratio)” value is -0.938.

With GACCAAUCUGCCCUCAGAGCUCGAGAACAUCUUCGGAUGCAGACGAGGCAGGUUUCGGUGGCGCGAUAGCGCCAACGUCCUCAACAUCCAAUGCUUCCCAUCACAUGAUGAUGCCUGAAGAGCCUUGGUUUUUUG, the “polymerase ribozyme fitness (log ratio)” value was -3.19.

With GACCAAUCUGCCCUCAGAGCUCGAGAACAUCUUCGGAUGCAGAGGAGGCAAGCUUCGGUGGCGCGAUAGCGCCAACGUCCUCAACCUCCAAUGCAUCCCACCACAUGAUGAUGCCUGAAGAGCCUUAGUUUUUUG, the “polymerase ribozyme fitness (log ratio)” value is -3.6.

With GACCAAUCUGCCCUCAGAGCUUGAGAACAUCUUCGGAUGCAGAGGAGGCAGGCUUCGGUGGCGCGAUAGCGCCAACGUCCUCAACCUCCAAUGCAUCCCACCACAUGAUGAUGCCUGAAGUGCCUUGGUUUUUUG, the “polymerase ribozyme fitness (log ratio)” value is -2.45.

On to GACCAAUCUGCCAUCAGAGCUCGAGAACAUCUUCGGAUGCAGAGGAGGCAGGCUUCGGUGGCGCGAUAGCGCCAACGUCCUCAACCUCCAAUGCAUCCCACCACAUGAUGAUGCUUGAAGAGCCUUGGUUUUUUG, for which the “polymerase ribozyme fitness (log ratio)” value is -3.06.

With GACCAAUCUGCCCUCAGAGCUCGAGAACAUCUUCGGAUGCAGAGGAGGCAGGCUUCGGUGCCGCGAUAGCGCCAACGGCCUCAACCUCCAAUGCAUCCCACCACAUGAUGAAGCCUGAAGAGCCUUGAUUUUUUG, the “polymerase ribozyme fitness (log ratio)” value was -6.61.

GACCAAGCUGCCCUCAGAGCUCGAGAACAUCUUCGGAUGCAGAGGAGGCAGGCUUCGGUGGCGCGAUAGCGCCAACGUCCUCAACCUCCAAUGCAUCCCACCACAUGAUGAUGCCUGAAGAGCAUUGGUUUUUUG: the “polymerase ribozyme fitness (log ratio)” value came to 1.74.

Turning to GACCAAUCGGCCCUCAGAGCUCGAGAACAUCUUCGGAUGCAGAGGAGGCAGGCUUCGGUGGCGCGAUAGCGCCAACGUCCUCAACCUCCAAUGCAUCCCACCACAUGAUGUUGCCUGUAAAGCCUUGGUUUUUUG, the “polymerase ribozyme fitness (log ratio)” value is -2.78.

Turning to GACCAAUCUGCCCUCAGAGCUCGAGAACAUCUUCGGAUGCAGAGGAGGCAGGCUUCGGUGGCGCGAUAGCGCCAACGUCCUCAACCUCCAAUGCAUCCCACCAUAUGAUGAUGCCCGAAGAGCCUUGGUUUUUUG, the “polymerase ribozyme fitness (log ratio)” value is -0.608.

Values taken from the RNAGym collection of RNA variant scans (doi:10.1073/pnas.2313332121).
